Molecular target: human CXCR4 (C-X-C chemokine receptor type 4), endogenous on human leukemia cell lines (human) (UniProt P61073)
Assay: cell-based or functional assay

UniProt P61073, sequence (P61073 whole entry): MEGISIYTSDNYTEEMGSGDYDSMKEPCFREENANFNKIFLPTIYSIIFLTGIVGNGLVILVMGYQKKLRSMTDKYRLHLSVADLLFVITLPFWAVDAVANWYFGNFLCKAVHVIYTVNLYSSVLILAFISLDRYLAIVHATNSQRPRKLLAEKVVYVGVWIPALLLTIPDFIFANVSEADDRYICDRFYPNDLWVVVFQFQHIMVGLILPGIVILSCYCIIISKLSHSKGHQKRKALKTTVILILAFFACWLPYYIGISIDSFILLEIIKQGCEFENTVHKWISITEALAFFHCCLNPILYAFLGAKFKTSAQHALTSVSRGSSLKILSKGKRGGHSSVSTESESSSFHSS

human CXCL12α (ligand)
stimulation of migration of BV-173 cells (chemotaxis assay), half-maximal stimulation: 3 nM
stimulation of migration of Jurkat cells (chemotaxis assay), half-maximal stimulation: 0.3 nM
stimulation of migration of Nalm-6 cells (chemotaxis assay), half-maximal stimulation: 0.3 nM
stimulation of migration of U937 cells (chemotaxis assay), half-maximal stimulation: 3 nM

Source: patent publication EP4306640A1
